Experimental data published in US20230049752A1 (University of California, published 2023).
Changes are numbered by the printed parent chain.

T1: mouse Claudin-6 (CLDN6) (mouse, UniProt Q9Z262 1-219)
T1 construct: whole, on cells; GFP fusion on engineered HEK293T cells; also called Mouse CLDN6; murine CLDN6
T1 sequence (looked up): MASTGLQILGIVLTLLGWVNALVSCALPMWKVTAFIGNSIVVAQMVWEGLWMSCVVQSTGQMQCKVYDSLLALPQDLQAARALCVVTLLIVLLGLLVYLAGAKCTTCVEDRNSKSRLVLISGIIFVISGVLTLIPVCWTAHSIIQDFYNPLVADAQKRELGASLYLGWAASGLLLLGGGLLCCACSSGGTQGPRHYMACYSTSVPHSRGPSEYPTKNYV

B1: AB4-chim (antibody, V domains shown)
VH: QVQLQQSGAELARPGASVKMSCKASGYTFTSYTMHWIKQRPGQGQEWIGYINPSSTYTHYIKKFKDKATLTADKSSSTAYMQLRSLTSEDSAVYYCSRGELGGFAYWGQGTLVTVSA
VL: DVVMTQTPLSLPVSLGDQASISCRSSQSLVHSDGNTYLNWYLQKPGQSPKLLIYKVSNRFSGVPDRFSGSGSGTDFTLKIRRVEAEDLGVYFCSQSTHVPYTFGGGTKLEIK
B2: AB11-chim (antibody, V domains shown)
VH: DVQLVESGGGLVQPRGSRKLSCAASGFTFSSFGMHWVRQAPEKGLEWVAYISSDSRTIYYADTVKGRFTISRDNPTNTLFLQMTSLRSEDTAMYYCARDYGRTYEAYWGQGTLVTVSA
VL: DIVLTQSPASLAVSLGQRATISCRASKSVSTSGYSYIHWYQQKPGQPPKLLIYLASNLESGVPARFSGSGSGTDFTLNIHPVEEEDAATYYCQHSRELPLTFGAGTKLELK
B3: AB1-6 (antibody, V domains shown)
VH: QVQLVQSGAEVKKPGASVKMSCKASGYTFTTYTMHWVRQAPGQGLEWIGFINPSSGYTDYAQKFQGRVTLTADTSTSTVYMELSSLRSEDTAVYYCANGDYYVAYWGQGTLVTVSS
VL: DIQMTQSPSSLSASVGDRVTITCTASSSVSSTYFHWYQQKPGKAPKLLIYSTSNLASGVPSRFSGSGSGTDYTLTISSLQPEDFATYYCHQYHRSPLTFGQGTKLEIK
notes: humanized
B4: AB4-4 (antibody, V domains shown)
VH: QVQLVQSGAEVKKPGASVKMSCKASGYTFTSYTMHWIRQAPGQGLEWIGYINPSSTYTHYAQKFQGRATLTADTSTSTAYMELSSLRSEDTAVYYCSRGELGGFAYWGQGTLVTVSS
VL: DVVMTQSPLSLPVTLGQPASISCRSSQSLVHSDGNTYLNWYQQRPGQSPRLLIYKVSNRFSGVPDRFSGSGSGTDFTLKISRVEAEDVGVYYCSQSTHVPYTFGQGTKLEIK
notes: humanized
B5: AB4-5 (antibody, V domains shown)
VH: B4 VH with L45Q
VL: B4 VL
notes: humanized
B6: AB4-3 (antibody, V domains shown)
VH: B4 VH with M20V, I37V, I48M, A68V, L70M, A79V
VL: B4 VL
notes: humanized
B7: AB9-4 (antibody, V domains shown)
VH: QVQLVQSGAEVKKPGASVKMSCKASGYRFTDYNMHWVRQAPGQGLEWIGYINPNNGGTNYAQKFQGRATLTVDTSTSTAYMELSSLRSEDTAVYYCARDYLYFFDCWGQGTLLTVSS
VL: DIQMTQSPSSLSASVGDRVTITCRASQTIGTWLAWYQQKPGKAPKLLIYAAASLADGVPSRFSGSGSGTDFTFTISSLQPEDFVTYYCQQLYSIPRTFGQGTKLEIK
notes: humanized
B8: AB11-2 (antibody, V domains shown)
VH: EVQLVESGGGLVQPGGSLRLSCAASGFTFSSFGMHWVRQAPGKGLEWVAYISSDSRTIYYADSVKGRFTISRDNAKNSLYLQMNSLRAEDTAVYYCARDYGRTYEAYWGQGTLVTVSS
VL: DIVMTQSPDSLAVSLGERATINCRASKSVSTSGYSYIHWYQQKPGQPPKLLIYLASNLESGVPDRFSGSGSGTDFTLTISSLQAEDVAVYYCQHSRELPLTFGQGTKLEIK
notes: humanized
B9: AB11-3 (antibody, V domains shown)
VH: B8 VH
VL: B8 VL with M4L, L82V, I110L
notes: humanized
B10: AB9 (antibody, V domains shown)
VH: EVQLQQSGPELVKPGASVKMSCKASGYRFTDYNMHWVKQSHGKSLEWIGYINPNNGGTNYNQNFKGKATLTVNKSSSTAYMELRSLTSEDSAAYYCARDYLYFFDCWGQGTTLTVSS
VL: DIQMTQSPASQSASLGESVTITCLASQTIGTWLAWYQQKPGKSPQLLIYAAASLADGVPSRFSGSGSGTRFSFKISSLQAEDFVSYYCQQLYSIPRTFGGGTKLEIK
B11: AB13 (antibody, V domains shown)
VH: QVQLQQSGAELVRPGTSVKVSCKASGYAFSNYLIEWVKQRPGQGLEWIGVINPGSGGTNYNEKFKGKATMTADKSSSTAYMHLSNLTSEDSVVYFCARSYFGRSYPYTMDYWGQGTSVTVSS
VL: EIVLTQSPTTMAASPGEKITITCSASSSISSNYLHWYQQKPGFSPKLLIYRTSNLASGVPARFSGSGSGTSYSLTIGTMEAEDVATYYCQQGSSIPLTFGAGTKLELK
B12: AB18 (antibody, V domains shown)
VH: QVQLKQSGPELEKPGASVKISCKASGYSFTGYNMNWVKQSNGKSLEWIGNIDPYYGGSTYNQKFTGKATLTVDKSSSTAYMQLKSLTSEDSAVYYCARERSGYVFSAMDYWGQGTSVTVSS
VL: NIMMTQSPSSLAVSAGEKVTMSCKSSQSVLFSSNQKNYLAWYQQKPGQSPRLLIYWASTRESGVPDRFTGSGSGTDFTLTISNVQAEDLAVYYCHQYLSSRTFGAGTKLELK
B13: AB19 (antibody, V domains shown)
VH: EVQLQQSGPELVKPGGSMKISCKASGYSFTGYTMNWVKRSHGKNLEWIGLINPYNGVTTYNQNFKGKATLAVDKSSSTAYMELLGLTSEDSAVYYCTRDPLYYGYRDSTMDYWGQGTSVTVSS
VL: B12 VL
B14: AB17 (antibody, V domains shown)
VH: QVQLQQSGAELAKPGASVKMSCKASGYTFTGYWMHWVKQRPGQGLEWLGYINPSTGYTESNQKFKDKATLTADKSSTTAYMQLRSLTPEDSAVYYCAREGITTVLVDYWGQGTTLTVSS
VL: QIVLTQSPAIMSASLGERVTMTCTASSSVSSSYLHWYQQKPGSSPKLWIYSTSNLASGVPARFSGSGSGTSYSLTISSMEAEDAATYYCHQYHRSPPTFGAGTKLELK
B15: AB14 (antibody, V domains shown)
VH: QVQLQQSGPELVRPGVSVKISCKGSGYTFTDYAMHWVKQSHAKSLEWIGVISTYSGNTNYNQKFQDKATMTVDKSSSTAYMALARLTSDDSAIYYCARRGDYSLYAMDYWGQGTSVTVSS
VL: DIVLTQSPASLAVSLGQRATISCKASQSVDYDGDNYVNWYQQKVGQPPKLLISAASNLESGIPARFSGSGSGTDFTLNIHPVEEEDAATYYCQQSNEDPFTFGSGTKLEIK

Target: human Claudin-6 (CLDN6) (human) (UniProt P56747)
Assay: FACS, 0.3 ug Ab, ARK2 cells (2nd Ab only 1351.21)

| FACS fluorescence | Binder |
| --- | --- |
| 19100 | B1 |
| 1320 | B2 |
| 2820 | B3 |
| 1050 | B4 |
| 967 | B5 |
| 1190 | B6 |
| 1120 | B7 |
| 1400 | B8 |
| 1320 | B9 |

Target: human Claudin-6 (CLDN6) (human) (UniProt P56747)
Assay: FACS, 1.5 ug Ab, ARK2 cells (2nd Ab only 1351.21)

| FACS fluorescence | Binder |
| --- | --- |
| 38400 | B1 |
| 1260 | B2 |
| 7740 | B3 |
| 1400 | B4 |
| 1200 | B5 |
| 1520 | B6 |
| 1550 | B7 |
| 1940 | B8 |
| 1540 | B9 |

Target: human Claudin-6 (CLDN6) (human) (UniProt P56747)
Assay: FACS, 1.5 ug Ab, OVCA429 cells (2nd Ab only 885.77)

| FACS fluorescence | Binder |
| --- | --- |
| 64800 | B1 |
| 2440 | B2 |
| 29900 | B3 |
| 1200 | B4 |
| 1350 | B5 |
| 1160 | B6 |
| 1110 | B7 |
| 2690 | B8 |
| 2200 | B9 |

Target: human Claudin-6 (CLDN6) (human) (UniProt P56747)
Assay: FACS titration of labelled mAb on HEK293T-CLDN6-mGFP cells

| EC50 [µM] | Binder |
| --- | --- |
| 2.67 | B10 |
| 5 | B11 |
| 5 | B3 |
| 5 | B12 |
| 5 | B13 |
| 2.65 | B14 |
| 5 | B15 |

Target: human Claudin-6 (CLDN6) (human) (UniProt P56747)
Assay: FACS titration of labelled mAb on ARK2 cells (endogenous CLDN6+)

| EC50 [µM] | Binder |
| --- | --- |
| 1.14 | B10 |
| 1.15 | B11 |
| 5 | B3 |
| 1.35 | B12 |
| 5 | B13 |
| 5 | B14 |
| 1.3 | B15 |

Target: CLDN3/4 (endogenous on LS513 or MCF7 cells)
Assay: FACS titration of labelled mAb on MCF7 cells (endogenous CLDN3/4+)

| EC50 [µM] | Binder |
| --- | --- |
| 5 | B10 |
| 5 | B11 |
| 5 | B3 |
| 5 | B12 |
| 5 | B13 |
| 5 | B14 |
| 0.546 | B15 |

Target: CLDN3/4 (endogenous on LS513 or MCF7 cells)
Assay: FACS titration of labelled mAb on LS513 cells (endogenous CLDN3/4+)

| EC50 [µM] | Binder |
| --- | --- |
| 1.04 | B10 |
| 1.59 | B11 |
| 5 | B3 |
| 5 | B12 |
| 5 | B13 |
| 5 | B14 |
| 1.16 | B15 |

Target: human Claudin-6 (CLDN6) (human) (UniProt P56747)
Assay: FACS titration of labelled mAb on OVCA429 cells (endogenous CLDN6+)

| EC50 [µM] | Binder |
| --- | --- |
| 1.17 | B10 |
| 2.29 | B11 |
| 5 | B3 |
| 2.44 | B12 |
| 5 | B13 |
| 5 | B14 |
| 1.66 | B15 |

Target: human Claudin-6 (CLDN6) (human) (UniProt P56747)
Assay: FACS, 0.3 ug Ab, 293T clone expressing human CLDN6 (2nd Ab only 768.07)

| FACS fluorescence | Binder |
| --- | --- |
| 176000 | B1 |
| 1670 | B2 |
| 120000 | B3 |
| 14100 | B4 |
| 16800 | B5 |
| 14300 | B6 |
| 15300 | B7 |
| 1290 | B8 |
| 1010 | B9 |

Target: human Claudin-6 (CLDN6) (human) (UniProt P56747)
Assay: FACS, 1.5 ug Ab, 293T clone expressing human CLDN6 (2nd Ab only 768.07)

| FACS fluorescence | Binder |
| --- | --- |
| 327000 | B1 |
| 3490 | B2 |
| 227000 | B3 |
| 49000 | B4 |
| 43400 | B5 |
| 47800 | B6 |
| 34300 | B7 |
| 2560 | B8 |
| 2360 | B9 |

Target: T1, mouse Claudin-6 (CLDN6)
Assay: FACS, 293T clone expressing mouse CLDN6, dose not stated (2nd Ab only 1061.72)
Protocol: Two doses (1.5 μg or 0.3 μg) of the humanized antibodies were tested for binding to either human CLDN6 or murine CLDN6 which proteins were expressed by engineered 293T clones.

| FACS fluorescence | Binder |
| --- | --- |
| 3640 | B1 |
| 5490 | B2 |
| 77600 | B3 |
| 741 | B4 |
| 2000 | B5 |
| 671 | B6 |
| 1710 | B7 |
| 7160 | B8 |
| 5520 | B9 |
